The assay deals with T1, EGFR-ECD-Fc chimera (Homo sapiens, UniProt P00533).
T1 construct: extracellular domain of the epidermal growth factor receptor, as Fc chimera; No catalogue number printed; detected through its Fc with a goat anti-human IgG Fc PE antibody; also called EGFR-Fc chimera; EGFR-Fc; source: bought: R&D
Nature of the assay: flow cytometry on cells; yeast cells displaying chimeric Fabs stained with EGFR-ECD-Fc chimera (100, 10 and 1 nM; sorting 250 nM down to 1 nM), detected with goat anti-human IgG Fc PE. To be noted: one partner purified. Background: A flow cytometer gives signals particle by particle.

B1: FEB4 VH paired with the VL of H1, Fab displayed on yeast (Fab, V domains shown)
VH: AVTLDESGGGLQTPGGALSLVCKASGFTFSSHGMLWVRQAPGKGLEFVAGISTDGSSTSYGAPVKGRATISRDNGQSTVRLQLNNLRAEDTGTYYCAKDAYRCRNCAEDIDAWGHGTEVIVSS
VL: ALTQPSSVSANPGETVKITCSGGYSYYGWIQQKSPGSAPVTLIYNNDNRPSGIPSRFSGSTSGSTSTLTITGVQAEDEAVYYCGSYDGSAGIFGAGTTLTVL
Consider B1, for which the binding result is given as “binds”.

B2: FEB4 VH paired with the VL of H3, Fab displayed on yeast (Fab, V domains shown)
VH: AVTLDESGGGLQTPGGALSLVCKASGFTFSSHGMLWVRQAPGKGLEFVAGISTDGSSTSYGAPVKGRATISRDNGQSTVRLQLNNLRAEDTGTYYCAKDAYRCRNCAEDIDAWGHGTEVIVSS
VL: ALTQPSSVSANPGETVEITCSGGGSNSYYGWYQQKAPGSAPVTVIYDNTNRPSNIPSRFSGSLSDSTNTLTITGVQADDEAVYFCGNEDNTDSYVGIFGAGTTLTVL
As to B2, the binding result is given as “binds”.

These data come from PMC7786285 (Frontiers in Immunology, 2020).
